Test results reported in publication PMC5171582, “Translational regulation of APOBEC3G mRNA by Vif requires its 5′UTR and contributes to restoring HIV-1 infectivity” (Scientific Reports, 2016).

Target: T1, HA-tagged APOBEC3G (human, UniProt Q9HC16 1-384)
T1 construct: APOBEC3G (A3G), human cytidine deaminase, expressed from pA3G-HA; The plasmid pA3G-HA is not described in the Plasmids section; also called A3G-HA; A3G; source: HEK 293T, transfected (pA3G-HA), in lysate
Assay: co-IP; HEK 293T cells co-transfected with pA3G-HA and wild-type or mutant Vif plasmids; lysed in RIPA 1X 24 h post-transfection; anti-HA antibody 2 h at 4 °C, protein A Dynabeads 1.5 h at 4 °C, 5 washes with cold RIPA; western blot with anti-Vif
Conditions: partners not purified

T1 sequence (Q9HC16 whole entry): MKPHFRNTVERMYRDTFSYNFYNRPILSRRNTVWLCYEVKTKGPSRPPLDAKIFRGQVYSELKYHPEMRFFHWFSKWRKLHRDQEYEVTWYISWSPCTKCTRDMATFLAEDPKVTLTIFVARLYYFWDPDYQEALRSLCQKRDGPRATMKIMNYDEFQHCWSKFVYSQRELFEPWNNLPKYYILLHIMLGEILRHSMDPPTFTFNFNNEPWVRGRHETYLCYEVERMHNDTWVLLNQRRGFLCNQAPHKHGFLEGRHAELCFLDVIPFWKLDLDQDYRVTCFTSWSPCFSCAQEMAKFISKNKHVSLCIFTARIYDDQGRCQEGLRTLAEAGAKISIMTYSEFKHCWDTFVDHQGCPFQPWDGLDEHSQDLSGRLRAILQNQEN

B1: Vif H42/43N (natural protein)
chain: not shown
notes: Vif of HIV-1 NL4.3 (codon-optimized pcDNAhVif) with the mutations H42N and H43N; also called H42/H43-N; Vif mutant H42/43N; source: HEK 293T, transfected (pcDNAhVif mutant), in lysate
fold decrease of binding against wild-type Vif: ~2 fold
